Source: US20220340682A1 (Sanofi, published 2022)
Changes are numbered by the printed parent chain. In names and notes the source's numbering stands.

Experiments:
[1] = biological target: T1, human CEACAM5 expressed on the surface of tumor cells (human, UniProt P06731 35-685); experiment: cell-based or functional assay
T1 sequence: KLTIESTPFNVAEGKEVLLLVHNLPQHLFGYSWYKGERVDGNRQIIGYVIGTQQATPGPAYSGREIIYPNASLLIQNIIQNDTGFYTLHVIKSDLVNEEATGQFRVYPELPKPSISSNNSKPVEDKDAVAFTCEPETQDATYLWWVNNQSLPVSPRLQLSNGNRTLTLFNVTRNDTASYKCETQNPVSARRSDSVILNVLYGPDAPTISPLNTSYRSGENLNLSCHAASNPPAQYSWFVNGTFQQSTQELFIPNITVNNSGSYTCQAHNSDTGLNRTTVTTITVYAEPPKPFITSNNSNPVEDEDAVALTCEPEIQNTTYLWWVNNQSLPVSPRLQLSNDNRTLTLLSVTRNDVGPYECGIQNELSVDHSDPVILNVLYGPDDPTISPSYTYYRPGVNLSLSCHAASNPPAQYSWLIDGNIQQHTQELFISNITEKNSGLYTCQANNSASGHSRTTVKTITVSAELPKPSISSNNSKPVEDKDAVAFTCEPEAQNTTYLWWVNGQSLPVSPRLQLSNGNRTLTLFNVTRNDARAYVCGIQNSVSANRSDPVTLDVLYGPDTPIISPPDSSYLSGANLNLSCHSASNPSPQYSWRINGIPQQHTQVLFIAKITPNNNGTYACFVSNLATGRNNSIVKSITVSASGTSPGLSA

[2] = biological target: T2, hCEACAM5, human CEACAM5 ECD (35-685) (human, UniProt P06731 35-685); experiment: ELISA, chimeric mAb
T2 construct: produced in HEK293; also called human CEACAM5 protein; human CEACAM5 extracellular domain
T2 sequence: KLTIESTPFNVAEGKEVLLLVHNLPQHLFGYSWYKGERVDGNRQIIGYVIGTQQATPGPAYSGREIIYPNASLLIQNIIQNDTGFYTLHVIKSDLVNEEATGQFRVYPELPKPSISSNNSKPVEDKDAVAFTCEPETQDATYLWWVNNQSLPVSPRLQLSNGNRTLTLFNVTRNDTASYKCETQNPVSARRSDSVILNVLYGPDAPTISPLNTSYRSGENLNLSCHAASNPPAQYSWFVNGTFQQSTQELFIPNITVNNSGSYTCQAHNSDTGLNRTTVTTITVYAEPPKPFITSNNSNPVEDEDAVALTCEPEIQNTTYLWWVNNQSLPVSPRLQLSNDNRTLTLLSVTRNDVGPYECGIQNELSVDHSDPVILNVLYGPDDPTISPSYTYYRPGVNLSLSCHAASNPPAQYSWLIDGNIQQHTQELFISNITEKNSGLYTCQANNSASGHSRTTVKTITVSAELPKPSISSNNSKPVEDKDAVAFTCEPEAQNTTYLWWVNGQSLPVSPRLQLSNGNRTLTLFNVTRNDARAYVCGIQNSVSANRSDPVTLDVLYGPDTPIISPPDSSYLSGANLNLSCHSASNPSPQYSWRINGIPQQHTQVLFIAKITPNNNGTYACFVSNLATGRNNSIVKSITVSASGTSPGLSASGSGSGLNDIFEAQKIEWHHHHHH

[3] = biological target: T3, cCEACAM5, M. fascicularis CEACAM5 ECD (35-688) (Macaca fascicularis); experiment: ELISA, chimeric mAb
T3 construct: ECD followed by a 24 amino acid extension containing a His-Tag; also called cynomolgus CEACAM5; monkey CEACAM5
T3 chain: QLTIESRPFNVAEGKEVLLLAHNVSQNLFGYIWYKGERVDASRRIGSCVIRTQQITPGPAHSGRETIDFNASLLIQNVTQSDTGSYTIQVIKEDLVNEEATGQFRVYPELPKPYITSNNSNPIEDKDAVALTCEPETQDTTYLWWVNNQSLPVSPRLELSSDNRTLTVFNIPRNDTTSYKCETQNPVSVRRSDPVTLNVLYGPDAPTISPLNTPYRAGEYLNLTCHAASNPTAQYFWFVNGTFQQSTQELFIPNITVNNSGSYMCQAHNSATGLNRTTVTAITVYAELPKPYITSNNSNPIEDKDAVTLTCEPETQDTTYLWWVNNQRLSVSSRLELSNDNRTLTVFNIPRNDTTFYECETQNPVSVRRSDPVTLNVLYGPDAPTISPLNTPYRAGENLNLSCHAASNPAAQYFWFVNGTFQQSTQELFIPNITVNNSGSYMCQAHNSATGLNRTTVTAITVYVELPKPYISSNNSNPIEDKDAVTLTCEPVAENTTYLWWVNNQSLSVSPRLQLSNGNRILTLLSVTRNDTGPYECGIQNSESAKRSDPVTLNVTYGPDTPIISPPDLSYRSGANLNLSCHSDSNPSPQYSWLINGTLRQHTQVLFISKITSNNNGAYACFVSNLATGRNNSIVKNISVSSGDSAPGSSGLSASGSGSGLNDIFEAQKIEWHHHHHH

[4] = biological target: T1, human CEACAM5 expressed on the surface …; experiment: apparent KD, flow cytometry on CR-IGR-034P primary colon tumor cells
Protocol: (§1) Advanced human primary colon tumor CR-IGR-034P (Julien et al., Clin Cancer Res Oct. 1, 2012 18:5314-5328) was obtained from Patient-derived xenograft in mice. Tumor CR-IGR-034P was enzymatically dissociated using collagenase Type IV (Invitrogen; #17104-019) and deoxyribonuclease I (Invitrogen; #18047-019) for 1 h at […], Cell viability was estimated by Viacount application using Guava® easyCyte™ 8HT Flow Cytometry System. […] 100 μL/well of goat anti-mouse IgG conjugated with Alexa647 (Invitrogen; # A2135) or goat anti-human IgG conjugated with Alexa488 (Invitrogen; # A11013) was added for 45 min at 4° C. and washed three times with PBS 1% BSA. The antibody binding was evaluated after centrifugation and resuspension of cells by adding 200 pliwell PBS 1% BSA and read using Guava® easyCyte™ 8HT Flow Cytometry System. Apparent KD and EC50 values were estimated using BIOST@T-BINDING and BIOST@T-SPEED softwares, respectively.

[5] = biological target: T1, human CEACAM5 expressed on the surface …; experiment: flow cytometry on CR-IGR-034P primary colon tumor cells
Protocol: as §1

[6] = biological target: T2, hCEACAM5, human CEACAM5 ECD (35-685); experiment: ELISA, coated CEACAM5
Protocol: (§2) All CEACAM5-specific mAbs were assessed for their ability to bind human and primate CEACAM5 protein by ELISA. Plates were coated with human or primate CEACAM5 protein, anti-hCEACAM5 mAbs were added to the plate and detected with rabbit anti-mouse IgG conjugated with horseradish peroxidase (Sigma; # A9044). The antibody binding was visualized by adding TMB-H2O2 buffer and read at a wavelength of 450 nm.

[7] = biological target: T3, cCEACAM5, M. fascicularis CEACAM5 ECD …; experiment: ELISA, coated CEACAM5
Protocol: as §2

B1: MAb5-SPDB-DM4 (other)
VH: ELQLVESGGVLVKPGGSLKLSCAASGFAFSSYDMSWVRQTPEKRLEWVTYINSGGGITYYPDTVKGRFTISRDNARNTLYLQMSSLKSEDTAIYYCTAHYFGSSGPFAYWGQGTLVTVSA
VL: DIQMTQSPASLSASVGETVTITCRASENIYSYLAWYQQKQGKSPQLLVYNAKTLTEGVPSRFSGSGSGTQFSLKINSLQPEDFGSYYCQHHYGTPFTFGSGTKLEIK
modifications: maytansinoid DM4 conjugated through SPDB linker; attachment residues not stated
[1]
  Cytotoxic activity IC50 (nM) on MKN45 cells: 0.24 nM

B2: MAb4-SPDB-DM4 (other)
VH: EVQLVESGGGLVKPGGSLKLSCAASGFTFSSYDMSWVRQTPEKRLEWVAFISSYGGRTYYADTVKGRFTISRDNAKNTLYLQMSSLKSEDTAMFYCAAHYFGTSGPFAYWGQGTLVTVSA
VL: B1 VL with L33F, T53I, T55A, S85T, T94I, I106L
modifications: maytansinoid DM4 conjugated through SPDB linker; attachment residues not stated
[1]
  Cytotoxic activity IC50 (nM) on MKN45 cells: 0.96 nM

B3: MAb2-SPDB-DM4 (other)
VH: EVQLQESGGVLVKPGGSLKLSCAASGFVFSSYDMSWVRQTPEKRLEWVAYISSGGGITYFPDTVQGRFTVSRDNAKNTLYLQMNSLKSEDTAIYYCAAHYFGSSGPFAYWGQGTLVTVSA
VL: B1 VL with Y30F, A51T, T55A
modifications: maytansinoid DM4 conjugated through SPDB linker; attachment residues not stated
[1]
  Cytotoxic activity IC50 (nM) on MKN45 cells: 0.14 nM

B4: chMAb5 (antibody, human IgG1, kappa, V domains shown)
VH: B1 VH
VL: DIQMTQSPASLSASVGETVTITCRASENIYSYLAWYQQKQGKSPQLLVYNAKTLTEGVPSRFSGSGSGTQFSLKINSLQPEDFGSYYCQHHYGTPFTFGSGTKLEIKR
notes: Chimeric, human IgG1 / Ckappa
[2]
  EC50: 0.18 nM
[3]
  EC50: 0.13 nM

B5: antibody MAb2 (antibody, mouse IgG1, V domains shown)
VH: B3 VH
VL: B1 VL with Y30F, A51T, T55A
notes: Murine IgG1, kappa; Rows are tied to the label as printed
[4]
  Kd: 0.38 nM
[5]
  EC50: 0.53 nM
[6]
  EC50: 0.14 nM
[7]
  EC50: 0.07 nM
  Ratio c/h (EC50 on cCEACAM5 against EC50 on hCEACAM5): 0.5

B6: chMab2K52R (antibody, human IgG1, kappa, V domains shown)
VH: B3 VH
VL: B4 VL with Y30F, A51T, K52R, T55A
notes: Chimeric MAb2 with K52R in CDR2-L
[2]
  EC50: 0.11 nM
[3]
  EC50: 0.15 nM

B7: chMAb4 (antibody, human IgG1, kappa, V domains shown)
VH: B2 VH
VL: B4 VL with L33F, T53I, T55A, S85T, T94I, I106L
notes: Chimeric, human IgG1 / Ckappa
[2]
  EC50: 0.14 nM
[3]
  EC50: 0.12 nM

B8: MAb1-SPDB-DM4 (other)
VH: EVMLVESGGGLVKPGGSLKLSCAASGFTFSSYAMSWVRQTPEKRLEWVATISSGGSYIYYLDSVKGRFTISRDNAKNTLYLQMSSLRSEDTAMYYCARPAYYGNPAMDYWGQGTSVTVSS
VL: DILMTQSQKFMSTSVGDRVSVTCKASQNVGTNVAWYQQKPGQSPKPLIYSASYRYSGVPDRFTGSGSGTDFTLTISNVQSEDLAEYFCQQYNSYPLYTFGGGTKLEIK
modifications: maytansinoid DM4 conjugated through SPDB linker; attachment residues not stated
[1]
  Cytotoxic activity IC50 (nM) on MKN45 cells: 0.89 nM

B9: chMAb1 (antibody, human IgG1, kappa, V domains shown)
VH: B8 VH
VL: DILMTQSQKFMSTSVGDRVSVTCKASQNVGTNVAWYQQKPGQSPKPLIYSASYRYSGVPDRFTGSGSGTDFTLTISNVQSEDLAEYFCQQYNSYPLYTFGGGTKLEIKR
notes: Chimeric, human IgG1 / Ckappa
[2]
  EC50: 0.51 nM
[3]
  EC50: 1.57 nM

B10: MAb3-SPDB-DM4 (other)
VH: EVKLVESGGGLVKPGGSLTLPCAASGFTFSRYAMSWVRQTPEKRLEWVASISSGGDTYYPDSVKGRFTVSRDNARNILFLQMSSLRSEDTGMYYCARVNYYDSSFLDWWGQGTTLTVSS
VL: B8 VL with L3V, K9R, S14L, V15E, P46A, S93N
modifications: maytansinoid DM4 conjugated through SPDB linker; attachment residues not stated
[1]
  Cytotoxic activity IC50 (nM) on MKN45 cells: 0.53 nM
